Laboratory results: publication PMC3197598, “Preventing Staphylococcus aureus Sepsis through the Inhibition of Its Agglutination in Blood” (PLoS Pathogens, 2011)

Target: T1, human fibrinogen (human, UniProt P02671-2 20-644; P02675 31-491; P02679-2 27-437)
T1 construct: fibrinogen A-alpha chain, human; fibrinogen B-beta chain, human; fibrinogen gamma chain, human; Coated on MaxSorb ELISA plates; also called Fbgn; source: bought: Sigma; copies: 2 + 2 + 2
T1 sequence (looked up) 1: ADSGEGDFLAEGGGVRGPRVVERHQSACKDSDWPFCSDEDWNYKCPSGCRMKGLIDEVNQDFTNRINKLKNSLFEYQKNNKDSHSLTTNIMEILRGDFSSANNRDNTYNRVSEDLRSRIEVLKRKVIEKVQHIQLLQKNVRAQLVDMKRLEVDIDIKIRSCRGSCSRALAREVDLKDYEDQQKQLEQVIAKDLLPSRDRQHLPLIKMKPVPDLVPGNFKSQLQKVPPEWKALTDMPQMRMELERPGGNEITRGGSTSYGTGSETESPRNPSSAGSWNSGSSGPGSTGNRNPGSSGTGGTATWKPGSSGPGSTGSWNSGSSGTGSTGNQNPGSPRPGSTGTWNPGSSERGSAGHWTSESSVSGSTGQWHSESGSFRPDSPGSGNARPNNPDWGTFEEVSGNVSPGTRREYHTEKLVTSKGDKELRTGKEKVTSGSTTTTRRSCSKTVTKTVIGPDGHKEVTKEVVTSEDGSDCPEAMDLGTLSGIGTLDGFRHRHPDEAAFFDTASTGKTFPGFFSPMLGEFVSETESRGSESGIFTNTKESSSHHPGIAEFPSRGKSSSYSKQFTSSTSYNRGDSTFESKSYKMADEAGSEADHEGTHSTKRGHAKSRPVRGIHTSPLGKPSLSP
T1 sequence (looked up) 2: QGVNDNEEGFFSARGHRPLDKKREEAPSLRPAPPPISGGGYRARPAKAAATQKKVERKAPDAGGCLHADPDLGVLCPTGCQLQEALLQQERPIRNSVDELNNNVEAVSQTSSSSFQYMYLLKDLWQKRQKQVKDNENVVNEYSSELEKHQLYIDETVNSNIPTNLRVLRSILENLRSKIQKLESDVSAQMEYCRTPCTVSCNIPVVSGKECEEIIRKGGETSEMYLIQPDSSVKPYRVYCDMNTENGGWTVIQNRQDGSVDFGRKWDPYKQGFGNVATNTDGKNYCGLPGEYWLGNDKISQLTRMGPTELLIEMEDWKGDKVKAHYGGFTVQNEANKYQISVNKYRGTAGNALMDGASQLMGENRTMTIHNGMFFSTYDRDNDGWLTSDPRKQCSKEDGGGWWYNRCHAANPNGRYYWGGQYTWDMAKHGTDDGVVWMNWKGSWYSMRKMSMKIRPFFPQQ
T1 sequence (looked up) 3: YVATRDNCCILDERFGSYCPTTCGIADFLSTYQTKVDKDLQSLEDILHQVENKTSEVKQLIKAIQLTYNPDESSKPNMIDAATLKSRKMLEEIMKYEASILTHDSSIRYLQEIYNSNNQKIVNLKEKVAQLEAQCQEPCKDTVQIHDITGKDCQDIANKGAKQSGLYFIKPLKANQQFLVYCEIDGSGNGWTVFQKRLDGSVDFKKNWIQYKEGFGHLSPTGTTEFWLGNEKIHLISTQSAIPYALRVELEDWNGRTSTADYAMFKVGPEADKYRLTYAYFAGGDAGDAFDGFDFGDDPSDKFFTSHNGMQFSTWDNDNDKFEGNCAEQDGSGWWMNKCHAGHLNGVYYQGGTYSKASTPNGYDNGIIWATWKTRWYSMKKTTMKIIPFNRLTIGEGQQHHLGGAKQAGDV
Test: ELISA; human fibrinogen coated overnight on MaxSorb 96-well plates, wells treated with PBS (fibrinogen) or 100 nM alpha-thrombin in 1% sodium-citrate/PBS for one hour at room temperature (fibrin); ClfA in 1% sodium-citrate added at increasing concentrations for one hour; bound ClfA detected with polyclonal anti-ClfA and anti-rabbit-HRP; non-linear regression, one-site saturation
Details: both partners purified

B1: clumping factor A (ClfA), purified recombinant (natural protein)
chain: not shown
notes: clumping factor A (ClfA) of Staphylococcus aureus; strain Newman is the strain worked with; it would add an N-terminal His tag (surmised); also called His6-ClfA; source: E. coli BL21(DE3), purified (Ni-NTA)
**Q.** Which Kd does the source give for B1 here?
**A.** The Kd was 395 ± 51.8 nM.
